Key:
Assay in all cases: ELISA on coated antigen, background subtracted
[1] = biological target: fibronectin purified from the conditioned medium of the SV40-transformed cell line WI38VA13 (human) (UniProt P02751)
[2] = biological target: human plasma fibronectin (human) (UniProt P02751)
[3] = biological target: large isoform of tenascin-C (UniProt P24821)
[4] = biological target: native FN 110 kD (B-) thermolysin fragment (human) (UniProt P02751)
[5] = biological target: native FN 120 kD (B+) thermolysin fragment (human) (UniProt P02751)
[6] = biological target: recombinant ED-B domain of human fibronectin with a carboxy terminal hexahistidine tag (human) (UniProt P02751)
[7] = biological target: recombinant FN domain 6 (human) (UniProt P02751)
[8] = biological target: recombinant FN fragment 789 (human) (UniProt P02751)
[9] = biological target: recombinant FN fragment 7B89 (human) (UniProt P02751)
Chain of recombinant FN fragment 7B89 (human) (P02751 other isoform, or with tags, fused parts or gaps limits assumed): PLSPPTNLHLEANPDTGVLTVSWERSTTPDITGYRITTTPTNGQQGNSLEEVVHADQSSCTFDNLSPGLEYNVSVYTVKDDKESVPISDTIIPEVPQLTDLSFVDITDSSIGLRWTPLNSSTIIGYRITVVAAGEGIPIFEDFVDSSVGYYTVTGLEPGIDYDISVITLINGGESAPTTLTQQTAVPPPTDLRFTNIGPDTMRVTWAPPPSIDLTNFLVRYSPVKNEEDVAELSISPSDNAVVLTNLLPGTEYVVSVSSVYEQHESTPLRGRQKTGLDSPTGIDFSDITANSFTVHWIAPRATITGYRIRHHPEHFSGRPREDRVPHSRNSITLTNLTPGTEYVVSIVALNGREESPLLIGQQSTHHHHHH

Chain of fibronectin purified from the conditioned medium of the SV40-transformed cell line WI38VA13 (human) (P02751 32-2477): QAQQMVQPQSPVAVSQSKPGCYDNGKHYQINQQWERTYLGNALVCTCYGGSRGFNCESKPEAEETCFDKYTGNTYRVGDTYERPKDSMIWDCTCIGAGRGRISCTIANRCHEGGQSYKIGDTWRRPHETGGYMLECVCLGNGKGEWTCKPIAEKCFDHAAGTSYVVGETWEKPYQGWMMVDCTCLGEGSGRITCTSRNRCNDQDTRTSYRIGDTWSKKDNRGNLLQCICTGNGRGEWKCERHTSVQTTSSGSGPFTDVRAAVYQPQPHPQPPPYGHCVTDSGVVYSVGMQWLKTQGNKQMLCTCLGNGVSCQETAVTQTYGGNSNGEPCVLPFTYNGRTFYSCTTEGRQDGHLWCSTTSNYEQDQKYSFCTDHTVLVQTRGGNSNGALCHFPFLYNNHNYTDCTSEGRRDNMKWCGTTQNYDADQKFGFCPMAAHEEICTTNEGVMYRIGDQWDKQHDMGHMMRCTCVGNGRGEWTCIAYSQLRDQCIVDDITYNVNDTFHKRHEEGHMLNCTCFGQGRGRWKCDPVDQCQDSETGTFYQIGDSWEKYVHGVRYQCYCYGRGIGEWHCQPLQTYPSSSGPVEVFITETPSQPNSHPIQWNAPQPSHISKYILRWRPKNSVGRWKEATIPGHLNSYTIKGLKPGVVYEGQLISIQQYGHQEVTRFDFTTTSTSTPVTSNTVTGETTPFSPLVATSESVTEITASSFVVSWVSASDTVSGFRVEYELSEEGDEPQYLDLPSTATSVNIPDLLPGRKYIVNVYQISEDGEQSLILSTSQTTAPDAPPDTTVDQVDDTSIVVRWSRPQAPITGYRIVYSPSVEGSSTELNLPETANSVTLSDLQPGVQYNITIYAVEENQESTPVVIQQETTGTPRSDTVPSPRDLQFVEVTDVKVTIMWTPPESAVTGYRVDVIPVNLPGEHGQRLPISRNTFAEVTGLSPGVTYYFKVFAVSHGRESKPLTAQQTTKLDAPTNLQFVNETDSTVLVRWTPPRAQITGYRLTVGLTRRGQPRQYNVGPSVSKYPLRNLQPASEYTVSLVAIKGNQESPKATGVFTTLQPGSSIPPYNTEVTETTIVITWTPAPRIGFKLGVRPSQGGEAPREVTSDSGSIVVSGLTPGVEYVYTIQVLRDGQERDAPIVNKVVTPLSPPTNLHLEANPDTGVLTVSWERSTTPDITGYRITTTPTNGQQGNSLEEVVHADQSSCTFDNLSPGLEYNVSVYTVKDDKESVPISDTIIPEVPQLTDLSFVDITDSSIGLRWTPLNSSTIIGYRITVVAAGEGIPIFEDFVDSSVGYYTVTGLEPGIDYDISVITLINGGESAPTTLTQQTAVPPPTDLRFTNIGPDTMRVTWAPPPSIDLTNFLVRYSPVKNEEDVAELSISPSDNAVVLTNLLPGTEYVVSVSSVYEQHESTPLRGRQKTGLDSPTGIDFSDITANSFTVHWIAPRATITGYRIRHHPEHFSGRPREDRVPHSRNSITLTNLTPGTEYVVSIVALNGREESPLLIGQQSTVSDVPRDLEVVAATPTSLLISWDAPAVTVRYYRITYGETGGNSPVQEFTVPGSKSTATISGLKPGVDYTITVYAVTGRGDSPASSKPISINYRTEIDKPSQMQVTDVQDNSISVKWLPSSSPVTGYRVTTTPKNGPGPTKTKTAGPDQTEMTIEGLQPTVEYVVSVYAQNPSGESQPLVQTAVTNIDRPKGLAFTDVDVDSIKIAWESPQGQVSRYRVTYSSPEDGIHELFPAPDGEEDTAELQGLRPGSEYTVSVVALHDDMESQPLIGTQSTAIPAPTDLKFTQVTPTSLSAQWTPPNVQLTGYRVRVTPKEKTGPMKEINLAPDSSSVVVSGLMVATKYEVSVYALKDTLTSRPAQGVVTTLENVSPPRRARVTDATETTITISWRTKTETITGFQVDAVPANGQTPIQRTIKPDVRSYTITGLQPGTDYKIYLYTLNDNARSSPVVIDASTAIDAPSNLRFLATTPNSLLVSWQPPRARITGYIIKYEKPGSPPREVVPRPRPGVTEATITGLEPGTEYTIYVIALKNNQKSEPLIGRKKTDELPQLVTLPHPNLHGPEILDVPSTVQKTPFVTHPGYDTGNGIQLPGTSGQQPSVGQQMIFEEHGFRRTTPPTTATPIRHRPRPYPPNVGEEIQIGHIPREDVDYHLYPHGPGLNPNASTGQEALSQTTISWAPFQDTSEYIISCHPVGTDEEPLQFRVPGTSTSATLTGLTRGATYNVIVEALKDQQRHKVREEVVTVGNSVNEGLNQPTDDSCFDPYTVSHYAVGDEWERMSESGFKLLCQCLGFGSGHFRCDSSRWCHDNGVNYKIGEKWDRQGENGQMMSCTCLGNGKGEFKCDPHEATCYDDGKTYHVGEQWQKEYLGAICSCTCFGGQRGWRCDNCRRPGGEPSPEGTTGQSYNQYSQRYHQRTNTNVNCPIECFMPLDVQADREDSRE
Chain of native FN 120 kD (B+) thermolysin fragment (human) (P02751 722-1721 limits assumed): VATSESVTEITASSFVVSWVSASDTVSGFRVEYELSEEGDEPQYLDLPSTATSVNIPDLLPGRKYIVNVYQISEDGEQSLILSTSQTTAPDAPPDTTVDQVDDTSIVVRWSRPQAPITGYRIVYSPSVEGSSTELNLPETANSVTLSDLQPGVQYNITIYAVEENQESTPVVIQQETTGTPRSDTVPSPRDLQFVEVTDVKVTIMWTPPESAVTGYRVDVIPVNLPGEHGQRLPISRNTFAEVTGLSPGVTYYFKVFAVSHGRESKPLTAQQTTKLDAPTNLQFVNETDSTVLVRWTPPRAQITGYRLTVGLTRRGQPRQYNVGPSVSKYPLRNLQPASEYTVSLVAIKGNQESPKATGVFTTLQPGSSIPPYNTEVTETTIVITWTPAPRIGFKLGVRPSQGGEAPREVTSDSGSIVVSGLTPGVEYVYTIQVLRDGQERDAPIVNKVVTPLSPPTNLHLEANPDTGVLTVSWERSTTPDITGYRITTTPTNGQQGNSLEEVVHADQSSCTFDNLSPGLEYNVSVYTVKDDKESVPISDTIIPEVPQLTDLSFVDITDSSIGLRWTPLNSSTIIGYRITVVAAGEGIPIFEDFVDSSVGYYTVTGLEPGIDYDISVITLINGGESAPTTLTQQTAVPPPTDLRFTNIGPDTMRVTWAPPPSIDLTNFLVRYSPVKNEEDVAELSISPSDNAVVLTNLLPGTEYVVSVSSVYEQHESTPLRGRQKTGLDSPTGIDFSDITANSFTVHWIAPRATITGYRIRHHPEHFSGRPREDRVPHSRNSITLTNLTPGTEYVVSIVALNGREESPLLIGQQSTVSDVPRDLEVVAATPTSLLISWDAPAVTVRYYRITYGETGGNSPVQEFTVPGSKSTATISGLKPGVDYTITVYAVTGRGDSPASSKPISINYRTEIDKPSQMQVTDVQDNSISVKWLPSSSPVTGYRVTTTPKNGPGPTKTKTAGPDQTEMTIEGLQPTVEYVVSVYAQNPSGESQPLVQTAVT
Chain of recombinant ED-B domain of human fibronectin with a carboxy terminal hexahistidine tag (human) (P02751 other isoform, or with tags, fused parts or gaps limits assumed): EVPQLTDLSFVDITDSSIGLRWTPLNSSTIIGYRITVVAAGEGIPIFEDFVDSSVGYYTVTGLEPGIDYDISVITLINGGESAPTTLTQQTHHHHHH
Chain of recombinant FN domain 6 (human) (P02751 other isoform, or with tags, fused parts or gaps limits assumed): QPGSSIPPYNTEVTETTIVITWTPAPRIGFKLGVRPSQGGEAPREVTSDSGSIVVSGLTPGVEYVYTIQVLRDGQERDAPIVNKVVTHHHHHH
Chain of native FN 110 kD (B-) thermolysin fragment (human) (P02751 other isoform, or with tags, fused parts or gaps limits assumed): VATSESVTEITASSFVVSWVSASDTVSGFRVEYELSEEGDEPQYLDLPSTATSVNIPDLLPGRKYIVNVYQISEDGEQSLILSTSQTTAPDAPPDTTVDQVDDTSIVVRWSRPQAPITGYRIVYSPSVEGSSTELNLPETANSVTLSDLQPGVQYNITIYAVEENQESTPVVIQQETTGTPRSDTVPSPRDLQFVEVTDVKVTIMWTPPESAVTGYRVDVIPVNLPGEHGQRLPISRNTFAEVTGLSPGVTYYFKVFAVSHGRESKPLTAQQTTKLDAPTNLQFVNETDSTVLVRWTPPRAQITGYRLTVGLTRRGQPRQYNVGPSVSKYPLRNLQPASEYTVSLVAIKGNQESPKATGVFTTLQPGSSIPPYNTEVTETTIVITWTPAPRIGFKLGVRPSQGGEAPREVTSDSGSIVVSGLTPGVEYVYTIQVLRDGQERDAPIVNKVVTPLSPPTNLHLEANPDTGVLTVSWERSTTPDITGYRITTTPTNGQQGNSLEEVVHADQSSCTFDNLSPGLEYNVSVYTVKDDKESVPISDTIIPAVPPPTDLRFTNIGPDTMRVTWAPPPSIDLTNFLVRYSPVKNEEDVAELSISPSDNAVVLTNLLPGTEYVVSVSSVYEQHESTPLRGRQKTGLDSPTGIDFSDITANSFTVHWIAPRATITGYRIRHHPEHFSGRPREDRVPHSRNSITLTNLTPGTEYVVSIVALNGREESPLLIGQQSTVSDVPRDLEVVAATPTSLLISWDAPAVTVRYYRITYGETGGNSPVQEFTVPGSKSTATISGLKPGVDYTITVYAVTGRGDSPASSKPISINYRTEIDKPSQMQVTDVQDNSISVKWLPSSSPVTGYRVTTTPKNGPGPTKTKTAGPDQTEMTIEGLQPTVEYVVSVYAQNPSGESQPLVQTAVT

Row | OD at 405 nm [1] | OD at 405 nm [2] | OD at 405 nm [3] | OD at 405 nm [4] | OD at 405 nm [5] | OD at 405 nm [6] | OD at 405 nm [7] | OD at 405 nm [8] | OD at 405 nm [9] | Substance
1 | 1.2 OD 405 nm | 0.09 OD 405 nm | 0.06 OD 405 nm | 0.05 OD 405 nm | 1.2 OD 405 nm | 0.15 OD 405 nm | 0.08 OD 405 nm | 0.05 OD 405 nm | 1.02 OD 405 nm | mAb BC-1 (antibody)
2 | 1.12 OD 405 nm | 1.73 OD 405 nm | 0.02 OD 405 nm | 1.2 OD 405 nm | 0.02 OD 405 nm | 0.04 OD 405 nm | 0.03 OD 405 nm | 1.25 OD 405 nm | 0.01 OD 405 nm | mAb IST-6 (antibody)

— patent US8703143
